Test results reported in the supplement of paper PMC5998384.

Columns and labels:
[1] = test system: HeLa Kyoto; experiment: solubility in G1/S (NP-40 vs SDS abundance) (log2 ratio); higher = more soluble; conditions: cell cycle stage: G1/S
[2] = test system: HeLa Kyoto; experiment: melting temperature (median over replicates), in situ; higher = more thermally stable
[3] = test system: HeLa Kyoto; experiment: solubility change mitosis vs G1/S (difference of NP-40 vs SDS log2 ratios) (log2 ratio difference); higher = more soluble in mitosis
[4] = test system: HeLa Kyoto; experiment: thermal stability score vs G1/S (z-score of summed log2 fold changes over temperatures); higher = more thermally stable than in G1/S
[5] = cell cycle stage: early G1 (4.5 h after nocodazole release)
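For melting temperature (median over replicates), in situ in this document: HeLa Kyoto cells synchronized by double thymidine or nocodazole block, proteins quantified by TMT10plex mass spectrometry, three independent biological replicates.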
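For solubility change mitosis vs G1/S (difference of NP-40 vs SDS log2 ratios) in this document: synchronized HeLa Kyoto cells (double thymidine block for G1/S, nocodazole release for mitosis), protein amounts in NP-40 versus SDS lysates quantified by mass spectrometry, three biological replicates.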
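For solubility in G1/S (NP-40 vs SDS abundance) in this document: HeLa Kyoto cells arrested at G1/S by double thymidine block, proteins quantified by TMT10plex mass spectrometry in mild NP-40 versus SDS extracts, three biological replicates.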
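For thermal stability score vs G1/S (z-score of summed log2 fold changes over temperatures) in this document: synchronized HeLa Kyoto cells, proteins quantified by TMT10plex mass spectrometry, three biological replicates, mitosis taken 0.5 h after nocodazole release, G1/S directly after double thymidine block.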

Row | Sequence | solubility in G1/S (log2) [1] | melting temperature ([2]; cell cycle stage: G1/S) [°C] | melting temperature ([2]; cell cycle stage: mitosis) [°C] | solubility change mitosis (log2) [3] | thermal stability score [4, 5] | thermal stability score ([4]; cell cycle stage: mitosis)
1 | MEEHSYIQKELDLQNGSLEEDSVVHSVENDSQNMMESLSPKKYSSSLRFKANGDYSGSYLTLSQPVPAKRSPSPLGTSVRSSPSLAKIQGSKQFSYDGTDKNIPMKPPTPLLNTTSSLSGYPLGRADFDHYTGRDSERALRLSEKPPYSKYSSRHKSHDNVYSLGGLEGRKASGSLLAMWNGSSLSDAGPPPISRSGAASMPSSPKQARKMSIQDSLALQPKLTRHKELASENINLRTRKYSSSSLSHMGAYSRSLPRLYRATENQLTPLSLPPRNSLGNSKRTKLGEKDLPHSVIDNDNYLNFSSLSSGALPYKTSASEGNPYVSSTLSVPASPRVARKMLLASTSSCASDDFDQASYVGTNPSHSLLAGESDRVFATRRNFSCGSVEFDEADLESLRQASGTPQPALRERKSSISSISGRDDLMDYHRRQREERLREQEMERLERQRLETILSLCAEYTKPDSRLSTGTTVEDVQKINKELEKLQLSDEESVFEEALMSPDTRYRCHRKDSLPDADLASCGSLSQSSASFFTPRSTRNDELLSDLTRTPPPPSSTFPKASSESSYLSILPKTPEGISEEQRSQELAAMEETRIVILNNLEELKQKIKDINDQMDESFRELDMECALLDGEQKSETTELMKEKEILDHLNRKIAELEKNIVGEKTKEKVKLDAEREKLERLQELYSEQKTQLDNCPESMREQLQQQLKRDADLLDVESKHFEDLEFQQLEHESRLDEEKENLTQQLLREVAEYQRNIVSRKEKISALKKQANHIVQQAQREQDHFVKEKNNLIMMLQREKENLCNLEKKYSSLSGGKGFPVNPNTLKEGYISVNEINEPCGNSTNLSPSTQFPADADAVATEPATAVLASQPQSKEHFRSLEERKKQHKEGLYLSDTLPRKKTTSSISPHFSSATMGRSITPKAHLPLGQSNSCGSVLPPSLAAMAKDSESRRMLRGYNHQQMSEGHRQKSEFYNRTASESNVYLNSFHYPDHSYKDQAFDTLSLDSSDSMETSISACSPDNISSASTSNIARIEEMERLLKQAHAEKTRLLESREREMEAKKRALEEEKRRREILEKRLQEETSQRQKLIEKEVKIRERQRAQARPLTRYLPVRKEDFDLRSHVETAGHNIDTCYHVSITEKTCRGFLIKMGGKIKTWKKRWFVFDRNKRTFSYYADKHETKLKGVIYFQAIEEVYYDHLKNANKSPNPLLTFSVKTHDRIYYMVAPSPEAMRIWMDVIVTGAEGYTHFLL [PHLDB2] | -0.28 | 48.9 | 49.1 | 0.164 | -0.165 | 1.44
2 | MEELSADEIRRRRLARLAGGQTSQPTTPLTSPQRENPPGPPIAASAPGPSQSLGLNVHNMTPATSPIGASGVAHRSQSSEGVSSLSSSPSNSLETQSQSLSRSQSMDIDGVSCEKSMSQVDVDSGIENMEVDENDRREKRSLSDKEPSSGPEVSEEQALQLVCKIFRVSWKDRDRDVIFLSSLSAQFKQNPKEVFSDFKDLIGQILMEVLMMSTQTRDENPFASLTATSQPIAAAARSPDRNLLLNTGSNPGTSPMFCSVASFGASSLSSLYESSPAPTPSFWSSVPVMGPSLASPSRAASQLAVPSTPLSPHSAASGTAAGSQPSSPRYRPYTVTHPWASSGVSILSSSPSPPALASSPQAVPASSSRQRPSSTGPPLPPASPSATSRRPSSLRISPSLGASGGASNWDSYSDHFTIETCKETDMLNYLIECFDRVGIEEKKAPKMCSQPAVSQLLSNIRSQCISHTALVLQGSLTQPRSLQQPSFLVPYMLCRNLPYGFIQELVRTTHQDEEVFKQIFIPILQGLALAAKECSLDSDYFKYPLMALGELCETKFGKTHPVCNLVASLRLWLPKSLSPGCGRELQRLSYLGAFFSFSVFAEDDVKVVEKYFSGPAITLENTRVVSQSLQHYLELGRQELFKILHSILLNGETREAALSYMAAVVNANMKKAQMQTDDRLVSTDGFMLNFLWVLQQLSTKIKLETVDPTYIFHPRCRITLPNDETRVNATMEDVNDWLTELYGDQPPFSEPKFPTECFFLTLHAHHLSILPSCRRYIRRLRAIRELNRTVEDLKNNESQWKDSPLATRHREMLKRCKTQLKKLVRCKACADAGLLDESFLRRCLNFYGLLIQLLLRILDPAYPDITLPLNSDVPKVFAALPEFYVEDVAEFLFFIVQYSPQALYEPCTQDIVMFLVVMLCNQNYIRNPYLVAKLVEVMFMTNPAVQPRTQKFFEMIENHPLSTKLLVPSLMKFYTDVEHTGATSEFYDKFTIRYHISTIFKSLWQNIAHHGTFMEEFNSGKQFVRYINMLINDTTFLLDESLESLKRIHEVQEEMKNKEQWDQLPRDQQQARQSQLAQDERVSRSYLALATETVDMFHILTKQVQKPFLRPELGPRLAAMLNFNLQQLCGPKCRDLKVENPEKYGFEPKKLLDQLTDIYLQLDCARFAKAIADDQRSYSKELFEEVISKMRKAGIKSTIAIEKFKLLAEKVEEIVAKNARAEIDYSDAPDEFRDPLMDTLMTDPVRLPSGTIMDRSIILRHLLNSPTDPFNRQTLTESMLEPVPELKEQIQAWMREKQNSDH [UBE4B] | -0.0721 | 51.3 | 51.8 | -0.0982 | 1.2 | 2.15
3 | MEESGYESVLCVKPDVHVYRIPPRATNRGYRAAEWQLDQPSWSGRLRITAKGQMAYIKLEDRTSGELFAQAPVDQFPGTAVESVTDSSRYFVIRIEDGNGRRAFIGIGFGDRGDAFDFNVALQDHFKWVKQQCEFAKQAQNPDQGPKLDLGFKEGQTIKLNIANMKKKEGAAGNPRVRPASTGGLSLLPPPPGGKTSTLIPPPGEQLAVGGSLVQPAVAPSSGGAPVPWPQPNPATADIWGDFTKSTGSTSSQTQPGTGWVQF [NECAP2] | 0.173 | 52.6 | 52 | -0.251 | -0.264 | -1.02
4 | MEFAAENEGKSGGGLHSVAEGVRLSPEPGREGVRDLAGAEEFGGGEEGTGLTGIKEIGDGEEGSGQRPEEIPMDLTVVKQEIIDWPGTEGRLAGQWVEQEVEDRPEVKDENAGVLEVKQETDSSLVVKEAKVGEPEVKEEKVKEEVMDWSEVKEEKDNLEIKQEEKFVGQCIKEELMHGECVKEEKDFLKKEIVDDTKVKEEPPINHPVGCKRKLAMSRCETCGTEEAKYRCPRCMRYSCSLPCVKKHKAELTCNGVRDKTAYISIQQFTEMNLLSDYRFLEDVARTADHISRDAFLKRPISNKYMYFMKNRARRQGINLKLLPNGFTKRKENSTFFDKKKQQFCWHVKLQFPQSQAEYIEKRVPDDKTINEILKPYIDPEKSDPVIRQRLKAYIRSQTGVQILMKIEYMQQNLVRYYELDPYKSLLDNLRNKVIIEYPTLHVVLKGSNNDMKVLHQVKSESTKNVGNEN [ZNHIT6] | 0.0397 | 48.4 | 50.2 | -0.116 | 1.3 | 2.06
5 | MEFSGRKWRKLRLAGDQRNASYPHCLQFYLQPPSENISLIEFENLAIDRVKLLKSVENLGVSYVKGTEQYQSKLESELRKLKFSYRENLEDEYEPRRRDHISHFILRLAYCQSEELRRWFIQQEMDLLRFRFSILPKDKIQDFLKDSQLQFEAISDEEKTLREQEIVASSPSLSGLKLGFESIYKIPFADALDLFRGRKVYLEDGFAYVPLKDIVAIILNEFRAKLSKALALTARSLPAVQSDERLQPLLNHLSHSYTGQDYSTQGNVGKISLDQIDLLSTKSFPPCMRQLHKALRENHHLRHGGRMQYGLFLKGIGLTLEQALQFWKQEFIKGKMDPDKFDKGYSYNIRHSFGKEGKRTDYTPFSCLKIILSNPPSQGDYHGCPFRHSDPELLKQKLQSYKISPGGISQILDLVKGTHYQVACQKYFEMIHNVDDCGFSLNHPNQFFCESQRILNGGKDIKKEPIQPETPQPKPSVQKTKDASSALASLNSSLEMDMEGLEDYFSEDS [PRIM2] | 0.23 | 48.9 | 49 | -0.116 | 0.648 | 2.05
6 | MEFYESAYFIVLIPSIVITVIFLFFWLFMKETLYDEVLAKQKREQKLIPTKTDKKKAEKKKNKKKEIQNGNLHESDSESVPRDFKLSDALAVEDDQVAPVPLNVVETSSSVRERKKKEKKQKPVLEEQVIKESDASKIPGKKVEPVPVTKQPTPPSEAAASKKKPGQKKSKNGSDDQDKKVETLMVPSKRQEALPLHQETKQESGSGKKKASSKKQKTENVFVDEPLIHATTYIPLMDNADSSPVVDKREVIDLLKPDQVEGIQKSGTKKLKTETDKENAEVKFKDFLLSLKTMMFSEDEALCVVDLLKEKSGVIQDALKKSSKGELTTLIHQLQEKDKLLAAVKEDAAATKDRCKQLTQEMMTEKERSNVVITRMKDRIGTLEKEHNVFQNKIHVSYQETQQMQMKFQQVREQMEAEIAHLKQENGILRDAVSNTTNQLESKQSAELNKLRQDYARLVNELTEKTGKLQQEEVQKKNAEQAATQLKVQLQEAERRWEEVQSYIRKRTAEHEAAQQDLQSKFVAKENEVQSLHSKLTDTLVSKQQLEQRLMQLMESEQKRVNKEESLQMQVQDILEQNEALKAQIQQFHSQIAAQTSASVLAEELHKVIAEKDKQIKQTEDSLASERDRLTSKEEELKDIQNMNFLLKAEVQKLQALANEQAAAAHELEKMQQSVYVKDDKIRLLEEQLQHEISNKMEEFKILNDQNKALKSEVQKLQTLVSEQPNKDVVEQMEKCIQEKDEKLKTVEELLETGLIQVATKEEELNAIRTENSSLTKEVQDLKAKQNDQVSFASLVEELKKVIHEKDGKIKSVEELLEAELLKVANKEKTVQDLKQEIKALKEEIGNVQLEKAQQLSITSKVQELQNLLKGKEEQMNTMKAVLEEKEKDLANTGKWLQDLQEENESLKAHVQEVAQHNLKEASSASQFEELEIVLKEKENELKRLEAMLKERESDLSSKTQLLQDVQDENKLFKSQIEQLKQQNYQQASSFPPHEELLKVISEREKEISGLWNELDSLKDAVEHQRKKNNDLREKNWEAMEALASTEKMLQDKVNKTSKERQQQVEAVELEAKEVLKKLFPKVSVPSNLSYGEWLHGFEKKAKECMAGTSGSEEVKVLEHKLKEADEMHTLLQLECEKYKSVLAETEGILQKLQRSVEQEENKWKVKVDESHKTIKQMQSSFTSSEQELERLRSENKDIENLRREREHLEMELEKAEMERSTYVTEVRELKDLLTELQKKLDDSYSEAVRQNEELNLLKAQLNETLTKLRTEQNERQKVAGDLHKAQQSLELIQSKIVKAAGDTTVIENSDVSPETESSEKETMSVSLNQTVTQLQQLLQAVNQQLTKEKEHYQVLE [KTN1] | 0.422 | 50 | 50.6 | 0.0644 | 5.06 | 7.49
7 | MEGAGENAPESSSSAPGSEESARDPQVPPPEEESGDCARSLEAVPKKLCGYLSKFGGKGPIRGWKSRWFFYDERKCQLYYSRTAQDANPLDSIDLSSAVFDCKADAEEGIFEIKTPSRVITLKAATKQAMLYWLQQLQMKRWEFHNSPPAPPATPDAALAGNGPVLHLELGQEEAELEEFLCPVKTPPGLVGVAAALQPFPALQNISLKHLGTEIQNTMHNIRGNKQAQGTGHEPPGEDSPQSGEPQREEQPLASDASTPGREPEDSPKPAPKPSLTISFAQKAKRQNNTFPFFSEGITRNRTAQEKVAALEQQVLMLTKELKSQKELVKILHKALEAAQQEKRASSAYLAAAEDKDRLELVRHKVRQIAELGRRVEALEQERESLAHTASLREQQVQELQQHVQLLMDKNHAKQQVICKLSEKVTQDFTHPPDQSPLRPDAANRDFLSQQGKIEHLKDDMEAYRTQNCFLNSEIHQVTKIWRKVAEKEKALLTKCAYLQARNCQVESKYLAGLRRLQEALGDEASECSELLRQLVQEALQWEAGEASSDSIELSPISKYDEYGFLTVPDYEVEDLKLLAKIQALESRSHHLLGLEAVDRPLRERWAALGDLVPSAELKQLLRAGVPREHRPRVWRWLVHLRVQHLHTPGCYQELLSRGQAREHPAARQIELDLNRTFPNNKHFTCPTSSFPDKLRRVLLAFSWQNPTIGYCQGLNRLAAIALLVLEEEESAFWCLVAIVETIMPADYYCNTLTASQVDQRVLQDLLSEKLPRLMAHLGQHHVDLSLVTFNWFLVVFADSLISNILLRVWDAFLYEGTKVVFRYALAIFKYNEKEILRLQNGLEIYQYLRFFTKTISNSRKLMNIAFNDMNPFRMKQLRQLRMVHRERLEAELRELEQLKAEYLERRASRRRAVSEGCASEDEVEGEA [TBC1D2] | -0.179 | 49.7 | 49.4 | -0.0396 | 1.39 | 0.724
